According to PMC5516924 (Biochemistry, 2016):
Where a chain is given by its changes, count along the chain named. Names and notes keep the numbering of the source.

Columns and labels:
crystal structure = target: the molecule itself; test: crystal structure
SEC = target: the molecule itself; test: SEC

B1: yGsy2-R589A/R592A (enzyme, Saccharomyces cerevisiae)
chain: MSRDLQNHLLFETATEVANRVGGIYSVLKSKAPITVAQYKDHYHLIGPLNKATYQNEVDILDWKKPEAFSDEMRPVQHALQTMESRGVHFVYGRWLIEGAPKVILFDLDSVRGYSNEWKGDLWSLVGIPSPENDFETNDAILLGYTVAWFLGEVAHLDSQHAIVAHFHEWLAGVALPLCRKRRIDVVTIFTTHATLLGRYLCASGSFDFYNCLESVDVDHEAGRFGIYHRYCIERAAAHSADVFTTVSQITAFEAEHLLKRKPDGILPNGLNVIKFQAFHEFQNLHALKKEKINDFVRGHFHGCFDFDLDNTLYFFIAGRYEYKNKGADMFIEALARLNYRLKVSGSKKTVVAFIVMPAKNNSFTVEALKGQAEVRALENTVHEVTTSIGKRIFDHAIRYPHNGLTTELPTDLGELLKSSDKVMLKRRILALRRPEGQLPPIVTHNMVDDANDLILNKIRQVQLFNSPSDRVKMIFHPEFLNANNPILGLDYDEFVRGCHLGVFPSYYEPWGYTPAECTVMGVPSITTNVSGFGAYMEDLIETNQAKDYGIYIVDRRFKAPDESVEQLVDYMEEFVKKTRRQRINQRNATEALSDLLDWKRMGLEYVKARQLALRRGYPDQFRELVGEELNDSNMDALAGGKKLKVARPLSVPGSPRDLRSNSTVYMTPGDLGTLQEVNNADDYFSLGVNPAADDDDDGPYADDS
stoichiometry N (crystal structure): 4

B2: yGsy2-R581A/R592A (enzyme, Saccharomyces cerevisiae)
chain: B1 chain with R581A, A589R
stoichiometry N (SEC): 4

B3: yGsy2-R581C/R592C (enzyme, Saccharomyces cerevisiae)
chain: B1 chain with R581C, A589R, A592C
stoichiometry N (SEC): 4
